Key:
[1] = test system: CFI-HSA (human serum albumin fused to the N-terminal end of wild type CFI)
[2] = test system: Complement Component 3b (C3b) in vitreous humor of African Green Monkeys

Substance | activation (cleavage of CFI-HSA into its activated form) [1] | ratio of C3b/iC3b in vitreous humor (chemiluminescent western blot, densitometry) [2]
recombinant furin | more than 90% activation of the protein | 
CFI-HSA (human serum albumin fused to the N-terminal end of wild type CFI) |  | showing a significant increase in cleavage in eyes receiveing a 1.0 mg injection of CFI-HSA compared to vehicle controls

— patent publication US20250177482
